Residue numbers refer to the chain shown, from its start.
B1: 1-125 (antibody, V domains shown)
VH: QVQLVESGGGLVKPGGSLRLSCAPAGFNFKDYYMTWIRQAPGKGLEWVSFISSSGQTIYYADSVKGRFTISRDNARNSLYLQMNSLRAEDTAVYYCARDSYSKLVDIVAIEAFDLWGQGTLVSVSS
VL: SYELTQPPSVSVAPGKMARITCGGDNIGSKSVHWYQQRPGQAPVLVIRFDTDRPSRIPERFSGSNSGNTATLAISRVEAGDEADYYCQVWDSSSARLVFGGGTKLTVL
B2: 1-15 (antibody, V domains shown)
VH: QVQLVASGGGLVKPGGSLRLSCAASEFTFSDYYMTWIRQAPGKGLEWVSYISSSGTTIYYADSVKGRFTVSRDNAKNSLFLQMNSLRAEDTALYYCARDSYSKLVDIEAIEAFDIWGQGTMVTVSS
VL: SYELTQPPSVSVGPGRTARITCGANNIGSKSVHWYQQRPGQAPVLVISFDTDRPSGIPERFSGSNSGNTATLTISRVEAGDEADYFCQVWDRTSDHVVFGGGTKLTVL
B3: 1-64 (antibody, V domains shown)
VH: B2 VH with E26G
VL: B2 VL
B4: 3-7 (antibody, V domains shown)
VH: QVQLVQSGAEVKKPGASVKVSCKTSGYTFNTYAISWVRQAPGQGLEWVGWINTYSGSTKYAQKVQGRVTMTTDTSTSTAYMELRGLRSDDTAVYYCARDGYNWGFLDFWGQGSLVTVSS
VL: DIQMTQSPSSLSASVGDRVTITCRASQGISNYLAWYQQKPGKLPKLLIYAASTLQSGVPSRFSGSGSGTDFTLTISSLQPEDVASYYCQKYNSAPLTFGPGTKVDIK
B5: 2-25 (antibody, V domains shown)
VH: QVQLVESGAEVKKPGALVKVSCKASGYTFTNYAIHWVRQASGQRLEWMGWINAGRGNTKYSQKFQGRVTITRDTSASTAYMELSSLRSEDAAVYFCARDESTGDYYYYMDVWGKGTTVTVSS
VL: SYELTQPPSVSVSPGQTASITCSGDRLDDKYASWYQQKAGQSPVLVIYQDNKRPSGIPERFSGSNSGNTATLTISGTQAMDEADYYCQAWDSDTYVFGTGTKVTVL
B6: 3-16 (antibody, V domains shown)
VH: QVQVVQSGAEVKKPGASVMVSCKTSGYRFTIYSIAWMRQAPGQGLEWMGSINTYNGNTKYAEKFQGRVTMSRDTSTSTAYMEVRSLGSADTAMYYCARDAENWGFFDDWGQGTLVTVSS
VL: EIVLTQSPGTVSLSPGERVTLSCRASQSVGRHLAWYQQKPGQPPRLLIYGASTRATGVPDRFSGSGSETEFTLAISSLQSEDFALYYCQQYNTWPYTFGQGTKLEIK
B7: 1-150 (antibody, V domains shown)
VH: QVQLVESGGGLVKPGGSLRLSCAASGFSFSAYYMSWIRQAPGKGLEWISYISSSGNTIYYTDSVKGRFTIARDNAKNSLYLQMNSLRAEDTGLYYCARDSYSKLADIEATEAFDVWGQGTMVAVSS
VL: SYELTQPPSVSVAPGKTARITCGGNNIGSKSVHWYQQKPGQAPVMVIYYDSDRPSGIPERFSGSNSGNTATLTISRVEAGDEADYYCQVWDSGSDRVVFGGGTKLTVL
B8: 1-85 (antibody, V domains shown)
VH: QVHLVESGGGLVKPGRSLRLSCAASGFTFSDYYMAWIRQVPGKGLEWVSFISSSGRTIYYADSVKGRFTISRDNAKDSLYLQMHSLRAEDTAVYYCARDSYSKLVDIEAIEAFDIWGRGTMVTVSS
VL: SYELAQPPSVSVAPGKTATIACGGDNIGGKSVHWYLQKAGQAPVLVISYDSDRPSGIPERFSGSNSGNTATLTISRVEAGDEADYFCQVWDRHGDHVVFGGGTKLTVL
B9: 1-175 (antibody, V domains shown)
VH: QVHLVESGGGLVKPGGSLRLSCAASGFTFSDYYMAWIRRAPGKGLEWISFISGSGRTLYHAESVKGRFTVSRDNAKDSLYLHMHSLRDADTAVYYCARDSYSKLVEIEAIEAFDVWGRGTVVTVSS
VL: B8 VL with T17P, T19R, I47M, A83G, H93Q, G94T
B10: 1-32 (antibody, V domains shown)
VH: QVKLVESGGGVVQPGRSLRLSCAGSGFAFDNYAMHWVRQAPGKGLEWVAVISLEGRNKYYAGPAKGRFSISRDNSRNTVHLQMNSLRPEDTAVYFCARDMRYYYDSNGHYRNRYGMDVWGQGTTVIVSS
VL: DIQMTQSPSSLSASVGDSVTITCQASQDINQFVSWYQQKPGKPPKLLIYDASNLESGVPSRFSGSGSGTHFTFTISSLQPDDIATYYCQQYENLFTFGPGTKVDIK

Assays:
CMV virions = assay: virion ELISA
[1] = molecular target: pentameric gH complex on infectious CMV (neutralization assays) (human cytomegalovirus); assay: cell-based or functional assay
[2] = molecular target: recombinant pentameric gH complex (Towne strain) (human cytomegalovirus, Towne strain) (UniProt P17176); assay: BLI competition on His-pentamer; competitor (antibody 2): 3-7
Chain of recombinant pentameric gH complex (Towne strain) (human cytomegalovirus, Towne strain) (P17176 30-715, one chain of several): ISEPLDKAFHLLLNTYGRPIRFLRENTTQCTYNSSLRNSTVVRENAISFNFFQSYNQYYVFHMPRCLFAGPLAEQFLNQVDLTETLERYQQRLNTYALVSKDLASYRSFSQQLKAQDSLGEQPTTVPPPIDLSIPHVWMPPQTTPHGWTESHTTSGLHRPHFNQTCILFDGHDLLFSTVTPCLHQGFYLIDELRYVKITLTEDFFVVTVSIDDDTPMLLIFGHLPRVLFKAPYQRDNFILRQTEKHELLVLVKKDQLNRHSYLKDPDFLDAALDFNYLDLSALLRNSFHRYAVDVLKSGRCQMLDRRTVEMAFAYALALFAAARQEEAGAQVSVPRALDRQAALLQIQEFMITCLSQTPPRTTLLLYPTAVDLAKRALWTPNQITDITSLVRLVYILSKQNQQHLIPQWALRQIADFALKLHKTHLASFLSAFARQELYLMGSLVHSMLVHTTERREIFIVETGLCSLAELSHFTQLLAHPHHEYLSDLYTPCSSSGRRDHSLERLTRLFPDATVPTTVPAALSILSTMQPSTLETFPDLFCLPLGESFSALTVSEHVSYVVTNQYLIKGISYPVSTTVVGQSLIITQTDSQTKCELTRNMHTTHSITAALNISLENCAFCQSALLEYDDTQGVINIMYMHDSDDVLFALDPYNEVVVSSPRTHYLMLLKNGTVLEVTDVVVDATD

[3] = molecular target: recombinant pentameric gH complex (Towne strain) (human cytomegalovirus, Towne strain) (UniProt P17176); assay: BLI competition on His-pentamer; competitor (antibody 2): 1-32
[4] = molecular target: recombinant pentameric gH complex (Towne strain) (human cytomegalovirus, Towne strain) (UniProt P17176); assay: BLI competition on His-pentamer; competitor (antibody 2): 1-85
[5] = molecular target: recombinant pentameric gH complex (Towne strain) (human cytomegalovirus, Towne strain) (UniProt P17176); assay: BLI competition on His-pentamer; competitor (antibody 2): 2-18
[6] = molecular target: recombinant pentameric gH complex (Towne strain) (human cytomegalovirus, Towne strain) (UniProt P17176); assay: BLI competition on His-pentamer; competitor (antibody 2): 2-25
[7] = molecular target: recombinant pentameric gH complex (Towne strain) (human cytomegalovirus, Towne strain) (UniProt P17176); assay: BLI competition on His-pentamer; competitor (antibody 2): 3-15
[8] = molecular target: recombinant pentameric gH complex (Towne strain) (human cytomegalovirus, Towne strain) (UniProt P17176); assay: BLI competition on His-pentamer; competitor (antibody 2): 3-16
[9] = molecular target: recombinant pentameric gH complex (Towne strain) (human cytomegalovirus, Towne strain) (UniProt P17176); assay: BLI competition on His-pentamer; competitor (antibody 2): 57.4
[10] = molecular target: recombinant pentameric gH complex (Towne strain) (human cytomegalovirus, Towne strain) (UniProt P17176); assay: BLI competition on His-pentamer; competitor (antibody 2): 70.7
[11] = molecular target: recombinant pentameric gH complex (Towne strain) (human cytomegalovirus, Towne strain) (UniProt P17176); assay: BLI competition on His-pentamer; competitor (antibody 2): 1-103
[12] = molecular target: recombinant pentameric gH complex (Towne strain) (human cytomegalovirus, Towne strain) (UniProt P17176); assay: BLI competition on His-pentamer; competitor (antibody 2): 1-150
[13] = molecular target: recombinant pentameric gH complex (Towne strain) (human cytomegalovirus, Towne strain) (UniProt P17176); assay: BLI competition on His-pentamer; competitor (antibody 2): 124.4
[14] = molecular target: recombinant pentameric gH complex (Towne strain) (human cytomegalovirus, Towne strain) (UniProt P17176); assay: BLI competition on His-pentamer; competitor (antibody 2): 270.7
[15] = molecular target: recombinant pentameric gH complex (Towne strain) (human cytomegalovirus, Towne strain) (UniProt P17176); assay: BLI competition on His-pentamer; competitor (antibody 2): 276.1
[16] = molecular target: recombinant pentameric gH complex (Towne strain) (human cytomegalovirus, Towne strain) (UniProt P17176); assay: BLI competition on His-pentamer; competitor (antibody 2): 316.2
[17] = molecular target: recombinant pentameric gH complex (Towne strain) (human cytomegalovirus, Towne strain) (UniProt P17176); assay: BLI competition on His-pentamer; competitor (antibody 2): 324.4

Binder	EC50 (CMV virions) [ng/mL]	EC50 Neutralizing [1] [ng/mL]	IC50 in ARPE-19 [1] [ng/mL]	IC50 in MRC-5 [1] [ng/mL]	Pair-wise inhibition (%) [2] [%]	Pair-wise inhibition (%) [3] [%]	Pair-wise inhibition (%) [4] [%]	Pair-wise inhibition (%) [5] [%]	Pair-wise inhibition (%) [6] [%]	Pair-wise inhibition (%) [7] [%]	Pair-wise inhibition (%) [8] [%]	Pair-wise inhibition (%) [9] [%]	Pair-wise inhibition (%) [10] [%]	Pair-wise inhibition (%) [11] [%]	Pair-wise inhibition (%) [12] [%]	Pair-wise inhibition (%) [13] [%]	Pair-wise inhibition (%) [14] [%]	Pair-wise inhibition (%) [15] [%]	Pair-wise inhibition (%) [16] [%]	Pair-wise inhibition (%) [17] [%]
B1	1400	0.9	–	–	–	–	–	–	–	–	–	–	–	–	–	–	–	–	–	–
B2	–	0.9	–	–	–	–	–	–	–	–	–	–	–	–	–	–	–	–	–	–
B3	–	1	–	–	–	–	–	–	–	–	–	–	–	–	–	–	–	–	–	–
B4	70	80	9.5	19	91	10	35	51	44	102	97	20	38	27	-6	35	16	12	21	14
B5	–	0.09	0.08	–	9	2	7	87	104	10	6	15	29	-4	-17	1	-10	-25	-1	-4
B6	100	90	17	37	79	-5	16	-17	-21	95	88	11	2	6	-22	-1	-1	18	-7	-5
B7	–	1	0.31	260	0	-11	61	-10	-22	6	2	-19	-32	26	104	-22	-29	-12	-22	-12
B8	–	0.9	0.13	–	27	16	87	14	-4	33	37	29	36	27	117	24	27	-2	29	17
B9	–	1	–	–	–	–	–	–	–	–	–	–	–	–	–	–	–	–	–	–
B10	–	20	0.82	–	8	91	18	-1	-33	7	10	57	87	15	4	7	97	-11	78	6

Source: patent US11230591
